According to patent publication US5578288, “Metal-binding targeted polypeptide constructs” (Cytogen Corporation, dated 1996):
Where no end group is shown, it is not given here.

B1: Benzoic acid bis-thiourea derived from Neuromedin-C, compound 3 (peptide)
peptide: GNHWAVGHLM-NH2
modifications: not fully specified (N-terminus); also: dimer: two chains on one 3,5-disubstituted benzoic acid via N-terminal thioureas
B2: Benzoic acid bis-thiosemicarbazide derived from N-acetyl-Neuromedin C-hydrazide, compound 6 (peptide)
peptide: Ac-GNHWAVGHLM
modifications: not fully specified (C-terminus); also: dimer: two chains on one 3,5-disubstituted benzoic acid via C-terminal thiosemicarbazides

Columns and labels:
[1] = biological target: receptor on murine NIH-3T3 fibroblast cells (ATCC No. CCL92) to which 125I-GRP binds (murine, UniProt P21729); assay: competition with 0.45 pM 125I-GRP on NIH-3T3 cells, filter assay
Experimental: Each tube was charged with 4 ×10^4 cells. […] Three control tubes with no cells or competitor were prepared for measurement of total counts added.
The samples were incubated for 30 min at RT. The contents of each tube were transferred into the wells of a 96-well filter bottom plate (Millipore Multiscreen, Arlington Heights, Mass.) and filtered under moderate vacuum (water aspirator). Each filter was washed three times by filling each well with ice cold PBS, Ph 7.4, 0.1% BSA. The plate was allowed to dry. Dried filters were placed into gamma-counter tubes (12×75 mm glass). The radioactivity on each filter and in the control tubes was counted using a LKB gamma counter. The bound/total added for each assay tube was calculated.

[2] = biological target: receptor on murine NIH-3T3 fibroblast cells (ATCC No. CCL92) to which 125I-GRP binds (murine) (UniProt P21729); assay: competition with […] 125I-GRP on NIH-3T3 cells; inhibitor at 10 nM
[3] = biological target: receptor on murine NIH-3T3 fibroblast cells (ATCC No. CCL92) to which 125I-GRP binds (murine) (UniProt P21729); assay: competition with […] 125I-GRP on NIH-3T3 cells; inhibitor at 100 nM
[4] = biological target: receptor on murine NIH-3T3 fibroblast cells (ATCC No. CCL92) to which 125I-GRP binds (murine) (UniProt P21729); assay: competition with […] 125I-GRP on NIH-3T3 cells; inhibitor at 1 nM

Chain of receptor on murine NIH-3T3 fibroblast cells (ATCC No. CCL92) to which 125I-GRP binds (murine) (P21729 whole entry): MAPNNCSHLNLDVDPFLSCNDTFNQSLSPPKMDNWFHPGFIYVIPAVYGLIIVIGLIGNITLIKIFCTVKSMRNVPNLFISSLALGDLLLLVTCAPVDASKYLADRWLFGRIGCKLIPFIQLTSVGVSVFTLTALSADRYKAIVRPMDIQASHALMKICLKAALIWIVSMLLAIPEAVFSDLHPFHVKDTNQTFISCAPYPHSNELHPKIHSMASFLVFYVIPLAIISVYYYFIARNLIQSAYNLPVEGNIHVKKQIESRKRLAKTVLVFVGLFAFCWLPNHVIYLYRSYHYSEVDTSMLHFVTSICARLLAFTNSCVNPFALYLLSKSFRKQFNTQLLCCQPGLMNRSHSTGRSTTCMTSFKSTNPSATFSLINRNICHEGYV

Binder	IC50 [1]	% BOUND (of I-125-GRP) [2]	% INHIBITION [2]	AVG CPM BOUND (of I-125-GRP) [2]	% BOUND (of I-125-GRP) [3]	% INHIBITION [3]	AVG CPM BOUND (of I-125-GRP) [3]	% BOUND (of I-125-GRP) [4]	% INHIBITION [4]	AVG CPM BOUND (of I-125-GRP) [4]
B1	10.6 nM	–	–	–	–	–	–	–	–	–
H-GNHWAVGHLM-NH2 [Neuromedin C (NMc, H-Gly-Asn-His-Trp-Ala-Val-Gly-His-Leu-Met-NH2)]	–	1.7%	71%	1130 CPM	1.4%	76%	940 CPM	2.2%	63%	1420 CPM
B2	43.3 nM	–	–	–	–	–	–	–	–	–
